The target of this test is PTH receptor (PTHR1) (human) (UniProt Q03431). The test can be described thus: cell-based or functional assay.

Among the data in patent US20260248925A1 are EC50 (cAMP, PTH1 cellular assay) and Maximal response values, retold here.

Sequence of UniProt Q03431 (Q03431 27-593): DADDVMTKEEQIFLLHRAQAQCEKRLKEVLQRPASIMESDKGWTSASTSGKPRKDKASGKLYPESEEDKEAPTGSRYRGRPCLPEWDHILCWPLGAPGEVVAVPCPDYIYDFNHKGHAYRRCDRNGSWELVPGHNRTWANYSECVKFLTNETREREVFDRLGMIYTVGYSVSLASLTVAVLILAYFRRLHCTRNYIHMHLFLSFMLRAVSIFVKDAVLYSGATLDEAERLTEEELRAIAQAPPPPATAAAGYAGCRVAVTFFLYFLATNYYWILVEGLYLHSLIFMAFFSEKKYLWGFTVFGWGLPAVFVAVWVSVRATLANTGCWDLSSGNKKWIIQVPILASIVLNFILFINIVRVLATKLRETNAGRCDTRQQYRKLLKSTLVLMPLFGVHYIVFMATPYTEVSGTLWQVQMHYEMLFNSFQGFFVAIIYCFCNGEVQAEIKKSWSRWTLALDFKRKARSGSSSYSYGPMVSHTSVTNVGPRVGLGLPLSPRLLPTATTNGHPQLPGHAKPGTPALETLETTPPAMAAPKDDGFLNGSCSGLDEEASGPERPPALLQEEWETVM

In the case of PTH (ligand), the EC50 (cAMP, PTH1 cellular assay) came out at 1.4 nM and the Maximal response amounted to 105%.
